Molecular target: T1, Pf Cmr2dHD (Pf1129), HD-domain-deleted Cmr2, N-terminally poly-histidine tagged (Pyrococcus furiosus, UniProt Q8U1S6 213-871)
T1 sequence (looked up): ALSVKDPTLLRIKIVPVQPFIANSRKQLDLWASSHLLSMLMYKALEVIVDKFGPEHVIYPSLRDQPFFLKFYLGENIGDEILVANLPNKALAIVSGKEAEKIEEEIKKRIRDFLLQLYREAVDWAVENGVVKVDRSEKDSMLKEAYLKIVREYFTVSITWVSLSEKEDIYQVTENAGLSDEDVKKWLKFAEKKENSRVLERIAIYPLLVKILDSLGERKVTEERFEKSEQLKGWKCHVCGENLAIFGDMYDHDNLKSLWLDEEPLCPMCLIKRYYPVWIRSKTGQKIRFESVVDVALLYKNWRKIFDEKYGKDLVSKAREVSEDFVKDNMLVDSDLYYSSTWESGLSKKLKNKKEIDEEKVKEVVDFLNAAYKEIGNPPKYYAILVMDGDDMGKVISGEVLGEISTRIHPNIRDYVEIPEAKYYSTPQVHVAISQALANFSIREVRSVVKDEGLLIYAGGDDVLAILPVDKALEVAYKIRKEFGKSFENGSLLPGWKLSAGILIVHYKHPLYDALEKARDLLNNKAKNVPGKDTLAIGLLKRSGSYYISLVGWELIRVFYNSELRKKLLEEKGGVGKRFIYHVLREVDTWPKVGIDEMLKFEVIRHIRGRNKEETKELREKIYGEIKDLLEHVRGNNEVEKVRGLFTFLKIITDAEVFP
Experiment: crystal structure

B1: Pf Cmr3 (Pf1128), untagged (natural protein, Pyrococcus furiosus)
chain: MIEVTFTPYDVLLFRESRPFDAGSESVARSIIPLPQTVAGAIRTLLFYKGLKNCVGVGEEEPEFTLVGIAIGTEKGRIYPLPFNIIKSEKFYKVVNPGRFLGKLILPPKGKYKSGYVTESILEKYLKGELKEVEENKVIRIEKEKRIGIKLSREKKVVEEGMLYTVEFLRIEKIYAWIEDPGCGIKDILSSYEFLTLGGESRVAFVEVDDKTPDIFNRELGSTKKALFYFSTPTIGKVGEIVQELEKRLNAKIDDYLLVSSRPTAISGWDMHEKKPKGTKFAIPPGSVLFVEFKEEVEVPPYIKLGKLKKLGYGLALGGIWE
In the case of B1, the “stoichiometry N” value is reported as 1 Cmr3:Cmr2dHD.

— paper PMC3606058 (Structure (London, England : 1993), 2013)
